Results reported in article PMC9352680, “A comprehensive thermodynamic model for RNA binding by the Saccharomyces cerevisiae Pumilio protein PUF4”.

T1: PUF4 RNA-binding domain (Saccharomyces cerevisiae, UniProt P25339 537-888)
T1 sequence: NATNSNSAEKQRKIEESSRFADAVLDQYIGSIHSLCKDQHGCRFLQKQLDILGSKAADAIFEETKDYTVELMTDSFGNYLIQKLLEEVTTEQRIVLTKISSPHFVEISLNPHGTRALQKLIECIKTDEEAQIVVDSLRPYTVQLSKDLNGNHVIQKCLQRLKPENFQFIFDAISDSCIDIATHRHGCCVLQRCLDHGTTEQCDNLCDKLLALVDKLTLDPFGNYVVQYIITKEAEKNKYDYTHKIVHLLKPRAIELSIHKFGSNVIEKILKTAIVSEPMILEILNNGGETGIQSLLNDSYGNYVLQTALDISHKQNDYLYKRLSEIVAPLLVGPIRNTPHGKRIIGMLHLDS


Each binder was assayed against T1, PUF4 RNA-binding domain (assay: Mg; RNA-MaP; 20 mM Na-HEPES pH 7.4, 30 mM KOAc, 0.75 mM MgCl2, 0.1% Tween-20, 5% glycerol, 0.1 mg/mL BSA, 2 mM DTT; 25 C; 0.0125-409.6 nM protein). Conditions: tags: N-His6-TEV cleaved; C-SNAP kept, Cy3B-labelled; label: tethered on chip by stalled RNA polymerase.

| Binder | Kd |
| --- | --- |
| Id_ii_S4_P3E.2_K3.1_C3.2_[C-2T]_[T-1A]_H3.1_A3.1_F3.1_T3.2_[T9C]_[A10C] (ssRNA) RNA: UUUGACAACUGAUCGUUCUUUCUUAUGUAUAUACCUUCUUUCUCGAUCAGUUGUCUUU | 6 nM |
| Id_ii_S4_P3E.2_K3.1_C3.2_[C-2A]_[T-1A]_H3.1_A3.1_F3.1_T3.2_[T9A]_[A10G] (ssRNA) RNA: UUUGACAACUGAUCGUUCUUUCUAAUGUAUAUAAGUUCUUUCUCGAUCAGUUGUCUUU | 13.3 nM |
| Id_ii_S4_P3E.2_K3.1_C3.2_[T-1C]_H3.1_A3.1_F3.1_T3.2_[T9G]_[A10T] (ssRNA) RNA: UUUGACAACUGAUCGUUCUUUCUCCUGUAUAUAGUUUCUUUCUCGAUCAGUUGUCUUU | 1.77 nM |
| Id_ii_S4_P3E.2_K3.1_C3.2_[T-1G]_H3.1_A3.1_F3.1_T3.2_[A10T] (ssRNA) RNA: UUUGACAACUGAUCGUUCUUUCUCGUGUAUAUAUUUUCUUUCUCGAUCAGUUGUCUUU | 1.48 nM |
| Id_ii_S4_P3E.2_K3.1_C3.2_[C-2A]_[T-1A]_H3.1_A3.1_F3.1_T3.2_[A10G] (ssRNA) RNA: UUUGACAACUGAUCGUUCUUUCUAAUGUAUAUAUGUUCUUUCUCGAUCAGUUGUCUUU | 7.52 nM |
| Id_ii_S4_P3E.2_K3.1_C3.2_[T-1C]_H3.1_A3.1_F3.1_T3.2_[T9C]_[A10G] (ssRNA) RNA: UUUGACAACUGAUCGUUCUUUCUCCUGUAUAUACGUUCUUUCUCGAUCAGUUGUCUUU | 6.54 nM |
| Id_ii_S4_P3E.2_K3.1_C3.2_[T-1C]_H3.1_A3.1_F3.1_T3.2_[T9A]_[A10T] (ssRNA) RNA: UUUGACAACUGAUCGUUCUUUCUCCUGUAUAUAAUUUCUUUCUCGAUCAGUUGUCUUU | 1.23 nM |
| Id_ii_S4_P3E.2_K3.1_C3.2_[C-2T]_H3.1_A3.1_F3.1_T3.2_[T9C]_[A10C] (ssRNA) RNA: UUUGACAACUGAUCGUUCUUUCUUUUGUAUAUACCUUCUUUCUCGAUCAGUUGUCUUU | 2.87 nM |
| Id_ii_S4_P3E.2_K3.1_C3.2_[C-2T]_[T-1A]_H3.1_A3.1_F3.1_T3.2_[T9C]_[A10T] (ssRNA) RNA: UUUGACAACUGAUCGUUCUUUCUUAUGUAUAUACUUUCUUUCUCGAUCAGUUGUCUUU | 6.04 nM |
| Id_ii_S4_P3E.2_K3.1_C3.2_[C-2T]_H3.1_A3.1_F3.1_T3.2_[T9A] (ssRNA) RNA: UUUGACAACUGAUCGUUCUUUCUUUUGUAUAUAAAUUCUUUCUCGAUCAGUUGUCUUU | 6.6 nM |
| Id_ii_S4_P3E.2_K3.1_C3.2_[C-2A]_[T-1G]_H3.1_A3.1_F3.1_T3.2_[T9A] (ssRNA) RNA: UUUGACAACUGAUCGUUCUUUCUAGUGUAUAUAAAUUCUUUCUCGAUCAGUUGUCUUU | 10.8 nM |
| Id_ii_S4_P3E.2_K3.1_C3.2_[C-2A]_[T-1C]_H3.1_A3.1_F3.1_T3.2_[A10G] (ssRNA) RNA: UUUGACAACUGAUCGUUCUUUCUACUGUAUAUAUGUUCUUUCUCGAUCAGUUGUCUUU | 39.2 nM |
| Id_ii_S4_P3E.2_K3.1_C3.2_[C-2T]_H3.1_A3.1_F3.1_T3.2_[T9A]_[A10C] (ssRNA) RNA: UUUGACAACUGAUCGUUCUUUCUUUUGUAUAUAACUUCUUUCUCGAUCAGUUGUCUUU | 4.42 nM |
| Id_ii_S4_P3E.2_K3.1_C3.2_[C-2T]_H3.1_A3.1_F3.1_T3.2_[T9G]_[A10T] (ssRNA) RNA: UUUGACAACUGAUCGUUCUUUCUUUUGUAUAUAGUUUCUUUCUCGAUCAGUUGUCUUU | 2.14 nM |
| Id_ii_S4_P3E.2_K3.1_C3.2_[C-2A]_[T-1C]_H3.1_A3.1_F3.1_T3.2_[A10T] (ssRNA) RNA: UUUGACAACUGAUCGUUCUUUCUACUGUAUAUAUUUUCUUUCUCGAUCAGUUGUCUUU | 2.68 nM |
| Id_ii_S4_P3E.2_K3.1_C3.2_[C-2A]_[T-1C]_H3.1_A3.1_F3.1_T3.2_[A10C] (ssRNA) RNA: UUUGACAACUGAUCGUUCUUUCUACUGUAUAUAUCUUCUUUCUCGAUCAGUUGUCUUU | 2.26 nM |
| Id_ii_S4_P3E.2_K3.1_C3.2_[T-1G]_H3.1_A3.1_F3.1_T3.2_[T9A]_[A10C] (ssRNA) RNA: UUUGACAACUGAUCGUUCUUUCUCGUGUAUAUAACUUCUUUCUCGAUCAGUUGUCUUU | 8.59 nM |
| Id_ii_S4_P3E.2_K3.1_C3.2_[C-2A]_H3.1_A3.1_F3.1_T3.2_[T9A] (ssRNA) RNA: UUUGACAACUGAUCGUUCUUUCUAUUGUAUAUAAAUUCUUUCUCGAUCAGUUGUCUUU | 11.8 nM |
| Id_ii_S4_P3E.2_K3.1_C3.2_[T-1G]_H3.1_A3.1_F3.1_T3.2_[T9A]_[A10G] (ssRNA) RNA: UUUGACAACUGAUCGUUCUUUCUCGUGUAUAUAAGUUCUUUCUCGAUCAGUUGUCUUU | 6.69 nM |
| Id_ii_S4_P3E.2_K3.1_C3.2_[C-2A]_H3.1_A3.1_F3.1_T3.2_[T9A]_[A10G] (ssRNA) RNA: UUUGACAACUGAUCGUUCUUUCUAUUGUAUAUAAGUUCUUUCUCGAUCAGUUGUCUUU | 10.2 nM |
| Id_ii_S4_P3E.2_K3.1_C3.2_[C-2A]_H3.1_A3.1_F3.1_T3.2_[A10T] (ssRNA) RNA: UUUGACAACUGAUCGUUCUUUCUAUUGUAUAUAUUUUCUUUCUCGAUCAGUUGUCUUU | 2.72 nM |
| Id_ii_S4_P3E.2_K3.1_C3.2_[C-2T]_[T-1A]_H3.1_A3.1_F3.1_T3.2_[T9A]_[A10C] (ssRNA) RNA: UUUGACAACUGAUCGUUCUUUCUUAUGUAUAUAACUUCUUUCUCGAUCAGUUGUCUUU | 15.9 nM |
| Id_ii_S4_P3E.2_K3.1_C3.2_[T-1G]_H3.1_A3.1_F3.1_T3.2 (ssRNA) RNA: UUUGACAACUGAUCGUUCUUUCUCGUGUAUAUAUAUUCUUUCUCGAUCAGUUGUCUUU | 1.4 nM |

| Binder | Kd |
| --- | --- |
| Id_ii_S4_P3E.2_K3.1_C3.2_[T-1G]_H3.1_A3.1_F3.1_T3.2_[T9C]_[A10C] (ssRNA) RNA: UUUGACAACUGAUCGUUCUUUCUCGUGUAUAUACCUUCUUUCUCGAUCAGUUGUCUUU | 11.3 nM |
| Id_ii_S4_P3E.2_K3.1_C3.2_[C-2A]_[T-1C]_H3.1_A3.1_F3.1_T3.2_[T9A]_[A10T] (ssRNA) RNA: UUUGACAACUGAUCGUUCUUUCUACUGUAUAUAAUUUCUUUCUCGAUCAGUUGUCUUU | 2.65 nM |
| Id_ii_S4_P3E.2_K3.1_C3.2_[C-2A]_H3.1_A3.1_F3.1_T3.2_[A10G] (ssRNA) RNA: UUUGACAACUGAUCGUUCUUUCUAUUGUAUAUAUGUUCUUUCUCGAUCAGUUGUCUUU | 10.6 nM |
| Id_ii_S4_P3E.2_K3.1_C3.2_[T-1C]_H3.1_A3.1_F3.1_T3.2_[T9C]_[A10C] (ssRNA) RNA: UUUGACAACUGAUCGUUCUUUCUCCUGUAUAUACCUUCUUUCUCGAUCAGUUGUCUUU | 2.05 nM |
| Id_ii_S4_P3E.2_K3.1_C3.2_[C-2T]_H3.1_A3.1_F3.1_T3.2_[T9C]_[A10T] (ssRNA) RNA: UUUGACAACUGAUCGUUCUUUCUUUUGUAUAUACUUUCUUUCUCGAUCAGUUGUCUUU | 2.81 nM |
| Id_ii_S4_P3E.2_K3.1_C3.2_[C-2T]_H3.1_A3.1_F3.1_T3.2_[A10T] (ssRNA) RNA: UUUGACAACUGAUCGUUCUUUCUUUUGUAUAUAUUUUCUUUCUCGAUCAGUUGUCUUU | 1.75 nM |
| Id_ii_S4_P3E.2_K3.1_C3.2_[T-1C]_H3.1_A3.1_F3.1_T3.2_[A10G] (ssRNA) RNA: UUUGACAACUGAUCGUUCUUUCUCCUGUAUAUAUGUUCUUUCUCGAUCAGUUGUCUUU | 1.76 nM |
| Id_ii_S4_P3E.2_K3.1_C3.2_[T-1C]_H3.1_A3.1_F3.1_T3.2 (ssRNA) RNA: UUUGACAACUGAUCGUUCUUUCUCCUGUAUAUAUAUUCUUUCUCGAUCAGUUGUCUUU | 0.873 nM |
| Id_ii_S4_P3E.2_K3.1_C3.2_[C-2T]_H3.1_A3.1_F3.1_T3.2_[A10C] (ssRNA) RNA: UUUGACAACUGAUCGUUCUUUCUUUUGUAUAUAUCUUCUUUCUCGAUCAGUUGUCUUU | 1.81 nM |
| Id_ii_S4_P3E.2_K3.1_C3.2_[T-1A]_H3.1_A3.1_F3.1_T3.2_[T9G]_[A10C] (ssRNA) RNA: UUUGACAACUGAUCGUUCUUUCUCAUGUAUAUAGCUUCUUUCUCGAUCAGUUGUCUUU | 2.75 nM |
| Id_ii_S4_P3E.2_K3.1_C3.2_[C-2A]_[T-1A]_H3.1_A3.1_F3.1_T3.2_[T9A]_[A10C] (ssRNA) RNA: UUUGACAACUGAUCGUUCUUUCUAAUGUAUAUAACUUCUUUCUCGAUCAGUUGUCUUU | 9.36 nM |
| Id_ii_S4_P3E.2_K3.1_C3.2_[T-1C]_H3.1_A3.1_F3.1_T3.2_[T9C]_[A10T] (ssRNA) RNA: UUUGACAACUGAUCGUUCUUUCUCCUGUAUAUACUUUCUUUCUCGAUCAGUUGUCUUU | 1.47 nM |
| Id_ii_S4_P3E.2_K3.1_C3.2_[C-2T]_[T-1A]_H3.1_A3.1_F3.1_T3.2_[T9A] (ssRNA) RNA: UUUGACAACUGAUCGUUCUUUCUUAUGUAUAUAAAUUCUUUCUCGAUCAGUUGUCUUU | 20.1 nM |
| Id_ii_S4_P3E.2_K3.1_C3.2_[C-2T]_[T-1A]_H3.1_A3.1_F3.1_T3.2_[A10T] (ssRNA) RNA: UUUGACAACUGAUCGUUCUUUCUUAUGUAUAUAUUUUCUUUCUCGAUCAGUUGUCUUU | 5.5 nM |
| Id_ii_S4_P3E.2_K3.1_C3.2_[T-1C]_H3.1_A3.1_F3.1_T3.2_[A10T] (ssRNA) RNA: UUUGACAACUGAUCGUUCUUUCUCCUGUAUAUAUUUUCUUUCUCGAUCAGUUGUCUUU | 1.16 nM |
| Id_ii_S4_P3E.2_K3.1_C3.2_[C-2T]_H3.1_A3.1_F3.1_T3.2 (ssRNA) RNA: UUUGACAACUGAUCGUUCUUUCUUUUGUAUAUAUAUUCUUUCUCGAUCAGUUGUCUUU | 2.14 nM |
| Id_ii_S4_P3E.2_K3.1_C3.2_[C-2A]_[T-1G]_H3.1_A3.1_F3.1_T3.2_[T9A]_[A10G] (ssRNA) RNA: UUUGACAACUGAUCGUUCUUUCUAGUGUAUAUAAGUUCUUUCUCGAUCAGUUGUCUUU | 9.13 nM |
| Id_ii_S4_P3E.2_K3.1_C3.2_[T-1C]_H3.1_A3.1_F3.1_T3.2_[T9G]_[A10C] (ssRNA) RNA: UUUGACAACUGAUCGUUCUUUCUCCUGUAUAUAGCUUCUUUCUCGAUCAGUUGUCUUU | 2 nM |
| UCUCUUAGUACUAUUAUCUCUU (ssRNA) [Ib_S1_P5E.1_K5.1_C5.1_H5.1_[T1A]_A5.1_[T5C]_F5.1_T5.1] | 1400 nM |
| UCUCUUCGUACUAUUAUCUCUU (ssRNA) [Ib_S1_P5E.1_K5.1_C5.1_H5.1_[T1C]_A5.1_[T5C]_F5.1_T5.1] | 592 nM |
| UCUCUUUGACUUAUUAUCUCUU (ssRNA) [Ib_S1_P5E.1_K5.1_C5.1_H5.1_[T3A]_[A4C]_A5.1_F5.1_T5.1] | > 2300 nM |
| UCUCUUCGUAAUAUUAUCUCUU (ssRNA) [Ib_S1_P5E.1_K5.1_C5.1_H5.1_[T1C]_A5.1_[T5A]_F5.1_T5.1] | 2020 nM |
